Test results published in ChEMBL document CHEMBL3525898, “Pharmacogenomics of gemcitabine metabolism: functional analysis of genetic variants in cytidine deaminase and deoxycytidine kinase” (Drug Metab Dispos, 2013).

Columns and labels:
Format in all cases: ADME
[1] = system: Nc1ccn([C@@H]2O[C@H](CO)[C@@H](O)C2(F)F)c(=O)n1; assay: Activity of human recombinant N-terminal His-tagged wild type DCK expressed in Escherichia coli BL21(DE3) cells assessed as enzyme-mediated […] incubated for 1 min by liquid chromatography-tandem mass spectrometry
[2] = system: Nc1ccn([C@@H]2O[C@H](CO)[C@@H](O)C2(F)F)c(=O)n1; assay: Activity of human recombinant N-terminal His-SUMO fused CDA Lys27Gln mutant expressed in Escherichia coli BL21(DE3) cells assessed as 2',2'-difluorodeoxyuridine formation by liquid chromatography-tandem mass spectrometry
[3] = system: Nc1ccn([C@@H]2O[C@H](CO)[C@@H](O)C2(F)F)c(=O)n1; assay: Activity of human recombinant N-terminal His-SUMO fused CDA Ala70Thr mutant expressed in Escherichia coli BL21(DE3) cells assessed as 2',2'-difluorodeoxyuridine formation by liquid chromatography-tandem mass spectrometry

Sequence of Deoxycytidine kinase (Homo sapiens) (chain, as listed by the source): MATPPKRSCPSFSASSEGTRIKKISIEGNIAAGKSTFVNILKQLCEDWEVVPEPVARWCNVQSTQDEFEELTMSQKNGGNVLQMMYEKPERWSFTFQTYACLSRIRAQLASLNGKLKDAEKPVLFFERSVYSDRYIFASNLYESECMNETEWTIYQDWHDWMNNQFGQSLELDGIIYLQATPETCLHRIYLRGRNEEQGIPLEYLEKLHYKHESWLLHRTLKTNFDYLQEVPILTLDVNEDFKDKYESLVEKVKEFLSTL

**Q.** What does the source list for Deoxycytidine kinase (Homo sapiens)?
**A.** Km [1]: 2.15 µM; Vmax [1]: 1.06 µmol/min/mg

**Q.** For Cytidine deaminase (Homo sapiens; K27Q), which Km [2] is on record?
**A.** 562 µM

**Q.** And the Vmax [2]?
**A.** 0.195 µmol/min/mg

**Q.** What does the source list for Cytidine deaminase (Homo sapiens; A70T)?
**A.** Km [3]: 610 µM; Vmax [3]: 0.151 µmol/min/mg
